# Results published in the supplement of paper PMC10065799, “High-throughput profiling of sequence recognition by tyrosine kinases and SH2 domains using bacterial peptide display” (eLife, 2023).
# Experiments:
# [1] = target: c-Src SH2; assay: SH2 binding enrichment of the phosphorylated peptide, bacterial display (enrichment ratio); higher = better substrate or ligand; peptides without Tyr show the background
# [2] = target: Grb2 SH2 (UniProt P62993); assay: as above
# [3] = target: SHP2-C SH2; assay: as above
# [4] = tested on: Fer (mouse); assay: phosphorylation enrichment, bacterial display (enrichment ratio); higher = better substrate or ligand; peptides without Tyr show the background
# [5] = target: Fyn (UniProt P06241); assay: as above
# Chain of Fyn (P06241 whole entry, looked up): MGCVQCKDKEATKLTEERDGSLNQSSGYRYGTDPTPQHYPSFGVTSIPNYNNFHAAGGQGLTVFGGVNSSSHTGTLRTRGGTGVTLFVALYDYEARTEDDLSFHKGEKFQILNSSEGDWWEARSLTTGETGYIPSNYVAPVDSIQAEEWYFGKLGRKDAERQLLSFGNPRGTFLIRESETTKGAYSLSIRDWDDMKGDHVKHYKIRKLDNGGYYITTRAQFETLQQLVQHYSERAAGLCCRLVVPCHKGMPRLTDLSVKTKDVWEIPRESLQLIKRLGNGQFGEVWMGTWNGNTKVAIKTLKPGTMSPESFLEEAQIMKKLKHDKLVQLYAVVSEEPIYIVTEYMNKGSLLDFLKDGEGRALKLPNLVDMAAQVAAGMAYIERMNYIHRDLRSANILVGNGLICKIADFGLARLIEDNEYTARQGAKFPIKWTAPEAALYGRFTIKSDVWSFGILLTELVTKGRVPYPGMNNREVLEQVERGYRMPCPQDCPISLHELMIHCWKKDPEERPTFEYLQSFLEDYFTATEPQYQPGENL
# [6] = target: FGFR3 (UniProt P22607); assay: as above
# Chain of FGFR3 (P22607 whole entry, looked up): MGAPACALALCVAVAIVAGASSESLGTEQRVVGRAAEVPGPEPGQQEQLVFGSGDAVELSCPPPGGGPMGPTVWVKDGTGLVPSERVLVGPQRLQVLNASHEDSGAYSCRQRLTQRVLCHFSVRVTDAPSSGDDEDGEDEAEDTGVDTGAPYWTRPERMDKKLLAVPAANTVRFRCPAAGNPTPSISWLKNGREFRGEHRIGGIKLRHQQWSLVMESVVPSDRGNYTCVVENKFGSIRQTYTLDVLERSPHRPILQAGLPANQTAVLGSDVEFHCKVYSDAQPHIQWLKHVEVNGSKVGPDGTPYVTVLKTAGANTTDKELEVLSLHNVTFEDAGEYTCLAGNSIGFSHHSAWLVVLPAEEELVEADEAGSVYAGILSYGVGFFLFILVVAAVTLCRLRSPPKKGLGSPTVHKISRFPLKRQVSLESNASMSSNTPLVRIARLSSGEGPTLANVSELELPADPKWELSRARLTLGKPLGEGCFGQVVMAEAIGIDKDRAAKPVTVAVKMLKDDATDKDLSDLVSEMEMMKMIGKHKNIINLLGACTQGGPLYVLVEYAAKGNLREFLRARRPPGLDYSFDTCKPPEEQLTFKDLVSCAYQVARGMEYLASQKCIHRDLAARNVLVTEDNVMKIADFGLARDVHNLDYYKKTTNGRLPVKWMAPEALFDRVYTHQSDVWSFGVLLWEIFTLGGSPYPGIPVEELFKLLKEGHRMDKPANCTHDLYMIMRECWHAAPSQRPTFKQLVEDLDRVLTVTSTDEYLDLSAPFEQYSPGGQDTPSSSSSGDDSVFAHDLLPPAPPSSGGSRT
# [7] = target: Jak2 (UniProt O60674); assay: as above
# Chain of Jak2 (O60674 whole entry, looked up): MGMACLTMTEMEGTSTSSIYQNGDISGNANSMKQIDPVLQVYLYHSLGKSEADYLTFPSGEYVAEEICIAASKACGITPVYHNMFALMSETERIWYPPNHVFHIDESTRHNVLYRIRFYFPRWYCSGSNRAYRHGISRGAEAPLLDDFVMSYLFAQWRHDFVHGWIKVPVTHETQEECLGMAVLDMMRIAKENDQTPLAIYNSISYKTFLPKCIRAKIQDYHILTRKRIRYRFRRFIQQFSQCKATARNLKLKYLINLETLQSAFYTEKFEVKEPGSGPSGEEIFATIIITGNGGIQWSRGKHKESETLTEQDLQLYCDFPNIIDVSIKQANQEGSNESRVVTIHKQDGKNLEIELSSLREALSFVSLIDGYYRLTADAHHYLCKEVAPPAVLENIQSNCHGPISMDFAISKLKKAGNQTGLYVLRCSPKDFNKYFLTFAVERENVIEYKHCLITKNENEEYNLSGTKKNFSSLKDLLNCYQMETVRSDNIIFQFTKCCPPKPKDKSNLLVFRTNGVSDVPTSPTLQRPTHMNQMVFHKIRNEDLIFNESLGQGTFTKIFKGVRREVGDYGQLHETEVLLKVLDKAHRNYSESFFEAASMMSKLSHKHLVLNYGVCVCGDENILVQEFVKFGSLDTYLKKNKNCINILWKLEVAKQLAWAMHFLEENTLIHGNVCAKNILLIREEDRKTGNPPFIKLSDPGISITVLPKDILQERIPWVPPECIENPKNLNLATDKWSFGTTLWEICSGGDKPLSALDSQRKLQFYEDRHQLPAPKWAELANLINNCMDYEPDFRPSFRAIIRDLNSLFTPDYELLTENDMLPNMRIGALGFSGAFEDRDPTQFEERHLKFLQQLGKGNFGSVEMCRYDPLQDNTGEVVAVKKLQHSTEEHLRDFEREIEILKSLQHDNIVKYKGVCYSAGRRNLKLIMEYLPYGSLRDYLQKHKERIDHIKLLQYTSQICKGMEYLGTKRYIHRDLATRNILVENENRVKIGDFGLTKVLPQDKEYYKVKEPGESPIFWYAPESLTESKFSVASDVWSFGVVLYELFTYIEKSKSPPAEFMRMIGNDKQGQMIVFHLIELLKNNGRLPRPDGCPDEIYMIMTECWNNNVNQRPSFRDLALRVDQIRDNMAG
# [8] = target: MERTK (UniProt Q12866); assay: as above
# [9] = target: Fes (UniProt P07332); assay: as above
# Chain of Fes (P07332 whole entry, looked up): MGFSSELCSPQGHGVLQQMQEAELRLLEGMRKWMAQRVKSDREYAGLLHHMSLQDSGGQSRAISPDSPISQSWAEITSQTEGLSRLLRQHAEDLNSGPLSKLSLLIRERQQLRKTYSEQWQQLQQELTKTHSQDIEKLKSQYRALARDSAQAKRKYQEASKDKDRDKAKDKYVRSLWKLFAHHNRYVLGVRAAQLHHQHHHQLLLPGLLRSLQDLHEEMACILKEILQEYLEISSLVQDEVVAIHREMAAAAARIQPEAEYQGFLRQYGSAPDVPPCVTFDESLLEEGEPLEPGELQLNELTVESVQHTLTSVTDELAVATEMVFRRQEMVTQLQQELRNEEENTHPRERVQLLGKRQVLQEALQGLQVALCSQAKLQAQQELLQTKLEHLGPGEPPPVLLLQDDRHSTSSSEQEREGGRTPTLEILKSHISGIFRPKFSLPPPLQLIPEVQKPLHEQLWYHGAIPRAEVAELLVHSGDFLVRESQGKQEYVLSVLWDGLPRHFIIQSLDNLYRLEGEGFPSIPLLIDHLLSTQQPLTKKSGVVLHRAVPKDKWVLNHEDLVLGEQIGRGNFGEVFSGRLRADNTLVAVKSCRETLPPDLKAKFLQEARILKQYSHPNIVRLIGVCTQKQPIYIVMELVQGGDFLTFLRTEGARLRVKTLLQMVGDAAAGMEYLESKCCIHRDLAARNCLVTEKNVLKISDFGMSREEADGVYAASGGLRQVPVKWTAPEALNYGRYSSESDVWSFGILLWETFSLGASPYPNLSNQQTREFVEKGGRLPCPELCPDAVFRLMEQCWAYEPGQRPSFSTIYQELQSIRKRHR
# [10] = target: FGFR1 (UniProt P11362); assay: as above
# [11] = tested on: c-Src; assay: as above
# [12] = tested on: AncSZ; assay: as above
# [13] = target: EPHB2 (UniProt P29323); assay: as above
# [14] = target: Hck (UniProt P08631); assay: as above
# Chain of Hck (P08631 whole entry, looked up): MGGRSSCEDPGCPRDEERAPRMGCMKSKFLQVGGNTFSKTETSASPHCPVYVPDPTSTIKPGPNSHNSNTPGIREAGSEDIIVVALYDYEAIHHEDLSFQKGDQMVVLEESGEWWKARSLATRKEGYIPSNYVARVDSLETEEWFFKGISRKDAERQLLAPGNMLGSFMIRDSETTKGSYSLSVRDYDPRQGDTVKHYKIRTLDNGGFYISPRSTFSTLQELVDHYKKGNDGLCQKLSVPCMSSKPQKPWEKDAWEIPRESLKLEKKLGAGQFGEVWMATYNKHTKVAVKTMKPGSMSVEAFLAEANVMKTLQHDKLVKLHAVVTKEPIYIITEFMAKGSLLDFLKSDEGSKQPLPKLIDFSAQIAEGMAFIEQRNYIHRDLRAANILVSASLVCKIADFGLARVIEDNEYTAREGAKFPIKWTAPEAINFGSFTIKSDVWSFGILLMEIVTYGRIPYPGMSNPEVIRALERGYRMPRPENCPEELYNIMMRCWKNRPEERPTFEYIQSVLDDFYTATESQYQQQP
# [15] = target: EPHB1 (UniProt P54762); assay: as above
# Chain of EPHB1 (P54762 whole entry, looked up): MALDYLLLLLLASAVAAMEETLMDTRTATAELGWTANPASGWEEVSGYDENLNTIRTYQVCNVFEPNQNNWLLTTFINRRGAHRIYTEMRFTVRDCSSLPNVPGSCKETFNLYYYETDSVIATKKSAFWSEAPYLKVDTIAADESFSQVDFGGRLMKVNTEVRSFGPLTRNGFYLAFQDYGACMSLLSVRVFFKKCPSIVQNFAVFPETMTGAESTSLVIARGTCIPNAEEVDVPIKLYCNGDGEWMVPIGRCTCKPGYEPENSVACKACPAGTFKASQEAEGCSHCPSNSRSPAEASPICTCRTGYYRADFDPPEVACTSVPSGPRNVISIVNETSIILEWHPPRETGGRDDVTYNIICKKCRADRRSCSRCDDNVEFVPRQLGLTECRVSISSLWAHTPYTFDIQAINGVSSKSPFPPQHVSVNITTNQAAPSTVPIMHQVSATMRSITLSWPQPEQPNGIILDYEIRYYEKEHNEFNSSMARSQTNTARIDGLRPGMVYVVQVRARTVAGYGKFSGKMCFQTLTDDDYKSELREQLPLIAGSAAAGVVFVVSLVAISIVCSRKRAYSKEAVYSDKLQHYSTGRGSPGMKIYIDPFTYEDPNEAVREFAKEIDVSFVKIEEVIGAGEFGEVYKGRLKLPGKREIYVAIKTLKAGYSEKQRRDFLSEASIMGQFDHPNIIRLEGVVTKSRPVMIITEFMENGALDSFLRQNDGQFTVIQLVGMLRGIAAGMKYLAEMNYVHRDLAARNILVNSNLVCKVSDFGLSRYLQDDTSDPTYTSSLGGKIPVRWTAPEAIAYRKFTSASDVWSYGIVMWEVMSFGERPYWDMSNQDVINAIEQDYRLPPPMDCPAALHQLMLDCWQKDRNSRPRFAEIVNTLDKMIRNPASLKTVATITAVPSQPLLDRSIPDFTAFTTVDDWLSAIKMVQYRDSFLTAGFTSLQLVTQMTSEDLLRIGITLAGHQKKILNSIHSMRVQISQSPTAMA
# [16] = tested on: c-Abl (mouse); assay: as above
# 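Wherever SH2 binding enrichment of the phosphorylated peptide, bacterial display is given: peptide library displayed on the E. coli surface as eCPX fusions, selected cells deep-sequenced, score is each peptide's frequency after selection divided by its frequency in the input.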
# 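Wherever phosphorylation enrichment, bacterial display is given: 11-residue human phosphosite peptides and single-mutation variants displayed on the E. coli surface, counted by deep sequencing, each peptide's frequency after selection divided by its frequency in the unselected input library; frequency after pTyr selection over input frequency; kinase dosed for 20-30% of maximal phosphorylation in three min.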
Sequence,SH2 binding enrichment [1],SH2 binding enrichment [2],SH2 binding enrichment [3],phosphorylation enrichment [4],phosphorylation enrichment [5],phosphorylation enrichment [6],phosphorylation enrichment [7],phosphorylation enrichment [8],phosphorylation enrichment [9],phosphorylation enrichment [10],phosphorylation enrichment [11],phosphorylation enrichment [12],phosphorylation enrichment [13],phosphorylation enrichment [14],phosphorylation enrichment [15],phosphorylation enrichment [16]
NSGFFYKTAEE [CCT6B_Y250],0.546,0.734,0.586,0.486,0.462,0.74,1.44,0.435,1.41,0.556,0.476,1.31,0.722,0.445,0.655,0.888
NTFENYWPFFQ [GATM_Y103_K102N_YF],0.651,1.06,0.949,0.894,3.18,10.5,3.43,5.46,1.18,12.4,4.41,1.34,5.8,5.44,9.64,1.22
NTGDYYDLYGG [PTPN11_Y63],0.687,1.02,0.939,1.59,5.18,13.8,4.07,4.18,1.13,14.7,5,4.64,14.4,5.35,13,1.02
NTYEKYWPFYQ [GATM_Y103],1.24,1.14,0.762,1.92,5.72,1.89,1.93,5.5,2.3,2.76,5,1.41,8.15,4.39,6.55,1.17
NVADHYGVYKP [ATP6V0D2_Y271],0.597,0.917,0.647,0.424,5.55,0.451,0.517,0.356,0.645,0.461,4.89,0.571,0.391,3.71,0.401,0.587
NVFGNYNNQSS [HNRNPA1_Y318_D314V],0.397,0.78,0.508,0.448,0.315,0.546,0.489,0.289,0.537,0.399,0.293,0.475,0.467,0.424,0.421,0.352
PAIYTYDEYKK [COL8A2_Y648_T645I],2.29,0.778,0.513,9.34,18.6,2.2,1.27,13.5,1.95,2.04,9.14,1.93,3.29,8.13,3.61,1.04
PAKPRYRARQR [KCNJ11_Y26_E23K],0.418,0.654,0.399,0.767,0.813,0.642,0.955,0.935,0.877,0.671,0.763,1.08,1.06,0.819,0.774,0.818
PEADKYCLTFA [FGG_Y300_R301C_YF],0.498,0.757,0.606,0.72,0.76,1.21,1.71,0.758,1.96,0.664,0.683,1.33,0.7,1.5,0.685,1.32

# Now from value to sequence, other results behind:
SH2 binding enrichment [1],SH2 binding enrichment [2],SH2 binding enrichment [3],Sequence,phosphorylation enrichment [4],phosphorylation enrichment [5],phosphorylation enrichment [6],phosphorylation enrichment [7],phosphorylation enrichment [8],phosphorylation enrichment [9],phosphorylation enrichment [10],phosphorylation enrichment [11],phosphorylation enrichment [12],phosphorylation enrichment [13],phosphorylation enrichment [14],phosphorylation enrichment [15],phosphorylation enrichment [16]
0.465,0.97,0.489,NTEGGYRCICA [CRELD1_Y328],0.498,0.511,0.636,0.869,0.484,1.02,0.668,0.465,0.976,0.644,0.538,0.496,0.947
2.35,1.68,0.821,NYCPGYNNFYN [USH2A_Y467_R464C],0.588,0.64,0.791,1.12,0.566,1.06,0.638,1.26,0.988,0.753,0.613,0.888,0.761
0.401,0.841,0.595,NYYDTYIKTCL [IQGAP2_Y1445],1.1,3.03,5.88,1.5,3.49,1.25,7.55,2.34,1.93,5.75,2.38,5.9,0.928
1.26,0.909,1.21,PARLEYCENEK [IRS1_Y46_Y47C],0.816,1.12,1.16,1.76,0.762,1.74,0.809,1.05,1.75,0.823,1.04,0.947,1.08
0.594,1.03,0.69,PCPANYFAFKI [FAM3D_Y65],1.12,1.14,7.65,8.15,12.1,2.29,9.03,4.44,2.11,3.72,1.34,6.38,7.14
0.418,0.694,0.757,PEAALYGRFTI [FYN_Y440],1.67,7.72,0.645,1.38,1.9,1.11,0.646,6.87,0.875,0.514,6.52,0.59,2.83
0.693,0.912,0.559,PEACDYGLGGG [GSTO1_Y239],0.656,0.691,0.816,1.11,0.635,1.34,1.19,1.19,1.78,0.887,0.739,1.38,1.28
